Test in all cases: optical tweezers force spectroscopy; single-chain clamp held by two 777-bp DNA handles between streptavidin on a biotinylated quartz slide and an anti-digoxigenin-coated 2 µm bead in the laser trap; stage moved at 100 nm/s; trap stiffness 0.15 pN/nm; buffer B (100 mM sodium phosphate, 150 mM sodium chloride, pH 7.2); rupture of the one subunit-subunit interface that can open within the chain

In assay [1] the target is single-chain E. coli β-clamp with cysteines at E64 (first subunit) and E314 (second subunit) (E. coli).
Assay [2] concerns the target single-chain E. coli β-clamp with cysteines at G102 (first subunit) and E298 (second subunit) (E. coli).
Assay [3] addresses single-chain S. cerevisiae PCNA with cysteines at D122 (first subunit) and D223 (third subunit) (S. cerevisiae).
The target of assay [4] is single-chain S. cerevisiae PCNA with cysteines at K107 (first subunit) and F185 (third subunit) (S. cerevisiae).

As for “single-chain E. coli β-clamp with cysteines at E64 (first subunit) and E314 (second subunit)”, the rupture force of the subunit interface in assay [1] stood at 5.8 pN.

With “single-chain E. coli β-clamp with cysteines at G102 (first subunit) and E298 (second subunit)”, the rupture force of the subunit interface in assay [2] came to 12 pN. As for “single-chain S. cerevisiae PCNA with cysteines at D122 (first subunit) and D223 (third subunit)”, in assay [3], the rupture force of the subunit interface stood at 11 pN.

As for “single-chain S. cerevisiae PCNA with cysteines at K107 (first subunit) and F185 (third subunit)”, in assay [4], the rupture force of the subunit interface turned out to be 1.7 pN.
